{"source": "patent US20230407267A1", "about": "“USES OF PATIENT-DERIVED SCAFFOLDS” (Iscaff Pharma AB, priority 2020, published 2023)", "test_system": "MCF7 cells", "assay": "PDS co-culture of MCF7 cells with activated T-lymphocytes, with or without PD1 blockade: viability of MCF7 cells", "assay_type": "cell-based, human", "details": "for % of viable MCF7 cells after 48 hours of co-culture with T-lymphocytes: MCF7 + TA+ pre-incubated with Pembr 100 μg/mL 30 min, relative to only-MCF7 control, average ± SD of 3 technical replicates", "description": "FIG. 25. PD1 blocking antibody increases the killing capacity of the T-lymphocytes in PDS-dependent manner. T-lymphocytes were activated 20 hours by exposition to CD3/CD28 Dynabeads. […] Then, the co-cultures were incubated for 48 hours. Controls including only MCF7 cells or T-lymphocytes, and 2D cultures were included. (A) Surface expression of PD1 by T-lymphocytes analyzed by FACS. (B) Graph showing the % of viable MCF7 cells after 48 hours of co-culture with T-lymphocytes in 5 different PDSs. Data are relative to their own control with only MCF7 cells and show average±SD of 3 technical replicates.\nIn addition, in FIG. 13, it is shown how differential expression of PDL1 by MCF7 cells is triggered by different breast cancer PDSs. […] First, T-lymphocytes were activated 20 hours by exposure to CD3/CD28 Dynabeads. […] The blockade of PD1 protein in the T-lymphocytes was confirmed by FACS (FIG. 25A). The T-lymphocytes, with or without PD1 blockade (Pembr) were then added to the PDS cultures, in which the MCF7 cells had been growing for 21 days. The co-cultures were incubated for 48 hours. Control samples included samples with MCF7 cells or T-lymphocytes on their own, and 2D cultures.", "data": [{"substance": "Pembrolizumab", "values": [{"measurement": "% of viable MCF7 cells after 48 hours of co-culture with T-lymphocytes", "setting": "2D MCF7 culture", "value": "5.5 ± 0.6", "unit": "%"}, {"measurement": "% of viable MCF7 cells after 48 hours of co-culture with T-lymphocytes", "setting": "PDS13", "value": "31.2 ± 1.7", "unit": "%"}, {"measurement": "killing efficacy of the T-lymphocytes after Pembrolizumab treatment", "setting": "PDS13 and PDS17, compared to without this treatment", "value": "no changes"}, {"measurement": "killing effect of the T-lymphocytes after incubation with Pembrolizumab", "setting": "PDS14, PDS15 and PDS16, compared to T-lymphocytes without this treatment", "value": "higher"}, {"measurement": "% of viable MCF7 cells after 48 hours of co-culture with T-lymphocytes", "setting": "PDS14", "value": "12.8 ± 2.3", "unit": "%"}, {"measurement": "% of viable MCF7 cells after 48 hours of co-culture with T-lymphocytes", "setting": "PDS15", "value": "9.5 ± 0.6", "unit": "%"}, {"measurement": "% of viable MCF7 cells after 48 hours of co-culture with T-lymphocytes", "setting": "PDS16", "value": "9.1 ± 2.5", "unit": "%"}, {"measurement": "% of viable MCF7 cells after 48 hours of co-culture with T-lymphocytes", "setting": "PDS17", "value": "19.2 ± 4.3", "unit": "%"}, {"measurement": "killing capacity of the T-lymphocytes", "setting": "in PDS-dependent manner, FIG. 25 legend", "value": "increases"}]}]}
